Consider one molecule from paper PMC8051872.

This test concerns the target wild-type full-length human ADAMTS13 (human) (UniProt Q76LX8).

B1: wild-type full-length human ADAMTS13 (enzyme)
chain: AAGGILHLELLVAVGPDVFQAHQEDTERYVLTNLNIGAELLRDPSLGAQFRVHLVKMVILTEPEGAPNITANLTSSLLSVCGWSQTINPEDDTDPGHADLVLYITRFDLELPDGNRQVRGVTQLGGACSPTWSCLITEDTGFDLGVTIAHEIGHSFGLEHDGAPGSGCGPSGHVMASDGAAPRAGLAWSPCSRRQLLSLLSAGRARCVWDPPRPQPGSAGHPPDAQPGLYYSANEQCRVAFGPKAVACTFAREHLDMCQALSCHTDPLDQSSCSRLLVPLLDGTECGVEKWCSKGRCRSLVELTPIAAVHGRWSSWGPRSPCSRSCGGGVVTRRRQCNNPRPAFGGRACVGADLQAEMCNTQACEKTQLEFMSQQCARTDGQPLRSSPGGASFYHWGAAVPHSQGDALCRHMCRAIGESFIMKRGDSFLDGTRCMPSGPREDGTLSLCVSGSCRTFGCDGRMDSQQVWDRCQVCGGDNSTCSPRKGSFTAGRAREYVTFLTVTPNLTSVYIANHRPLFTHLAVRIGGRYVVAGKMSISPNTTYPSLLEDGRVEYRVALTEDRLPRLEEIRIWGPLQEDADIQVYRRYGEEYGNLTRPDITFTYFQPKPRQAWVWAAVRGPCSVSCGAGLRWVNYSCLDQARKELVETVQCQGSQQPPAWPEACVLEPCPPYWAVGDFGPCSASCGGGLRERPVRCVEAQGSLLKTLPPARCRAGAQQPAVALETCNPQPCPARWEVSEPSSCTSAGGAGLALENETCVPGADGLEAPVTEGPGSVDEKLPAPEPCVGMSCPPGWGHLDATSAGEKAPSPWGSIRTGAQAAHVWTPAAGSCSVSCGRGLMELRFLCMDSALRVPVQEELCGLASKPGSRREVCQAVPCPARWQYKLAACSVSCGRGVVRRILYCARAHGEDDGEEILLDTQCQGLPRPEPQEACSLEPCPPRWKVMSLGPCSASCGLGTARRSVACVQLDQGQDVEVDEAACAALVRPEASVPCLIADCTYRWHVGTWMECSVSCGDGIQRRRDTCLGPQAQAPVPADFCQHLPKPVTVRGCWAGPCVGQGTPSLVPHEEAAAPGRTTATPAGASLEWSQARGLLFSPAPQPRRLLPGPQENSVQSSACGRQHLEPTGTIDMRGPGQADCAVAIGRPLGEVVTLRVLESSLNCSAGDMLLLWGRLTWRKMCRKLLDMTFSSKTNTLVVRQRCGRPGGGVLLRYGSQLAPETFYRECDMQLFGPWGEIVSPSLSPATSNAGGCRLFINVAPHARIAIHALATNMGAGTEGANASYILIRDTHSLRTTAFHGQQVLYWESESSQAEMEFSEGFLKAQASLRGQYWTLQSWVPEMQDPQSWKGKEGT
For the molecule B1, the percent enhancement by antibody 17G2 of catalytic efficiency (kcat/Km) of VWF96 proteolysis; intramolecular Spacer-CUB interaction within full-length ADAMTS13 came to 188%.
